Values quoted from earlier work as cited in publication doi:10.1101/429795.

Target: Cys164 (UniProt position 164, MYQQGCFAGGT)
Assay: chemical modification

## Chalcone synthase (MsCHS; CHS2) (Medicago sativa)
  pKa: 5.5
